{"source": "paper PMC10653809", "substrate": "COc1cc(S(=O)(=O)O)c(C)cc1N=Nc1c(O)ccc2cc(S(=O)(=O)O)ccc12", "test": "purified protein", "conditions": "2,000 µM NADH, 20 µM FMN, 20 mM sodium phosphate buffer, 37°C, aerobic", "data": [{"protein": "AzoR (Escherichia coli K-12) (protein) SKVLVLKSSILAGYSQSNQLSDYFVEQWREKHSADEITVRDLAANPIPVLDGELVGALRPSDAPLTPRQQEALALSDELIAELKAHDVIVIAAPMYNFNISTQLKNYFDLVARAGVTFRYTENGPEGLVTGKKAIVITSRGGIHKDGPTDLVTPYLSTFLGFIGITDVKFVFAEGIAYGPEMAAKAQSDAKAAIDSIVSA", "values": [{"measurement": "Km", "value": 67.7, "unit": "µM"}]}]}
